Reference: patent US20250276018A1 (AFFYIMMUNE THERAPEUTICS, published 2025)

What was measured:
[1] = target: T1, c-MET on human target cells (human, UniProt P08581 25-1390); assay: cell-based or functional assay
[2] = target: T1, c-MET on human target cells; assay: cell-based or functional assay; remark: listed apart in the source
[3] = target: T1, c-MET on human target cells; assay: cell-based or functional assay; remark: listed apart in the source
[4] = target: T1, c-MET on human target cells; assay: cell-based or functional assay; remark: listed apart in the source
[5] = target: T1, c-MET on human target cells; assay: cell-based or functional assay; remark: listed apart in the source
[6] = target: T2, AF647 labeled c-met protein (UniProt P08581 25-932, limits assumed, labeled with AlexaFluor 647 (AF647)); assay: flow cytometry, EC50 relative to parental Affy6 CAR-T cells (Round 2)
T2 construct: Soluble labeled c-met protein titrated on CAR-T cells
T2 sequence (P08581 25-932 limits assumed): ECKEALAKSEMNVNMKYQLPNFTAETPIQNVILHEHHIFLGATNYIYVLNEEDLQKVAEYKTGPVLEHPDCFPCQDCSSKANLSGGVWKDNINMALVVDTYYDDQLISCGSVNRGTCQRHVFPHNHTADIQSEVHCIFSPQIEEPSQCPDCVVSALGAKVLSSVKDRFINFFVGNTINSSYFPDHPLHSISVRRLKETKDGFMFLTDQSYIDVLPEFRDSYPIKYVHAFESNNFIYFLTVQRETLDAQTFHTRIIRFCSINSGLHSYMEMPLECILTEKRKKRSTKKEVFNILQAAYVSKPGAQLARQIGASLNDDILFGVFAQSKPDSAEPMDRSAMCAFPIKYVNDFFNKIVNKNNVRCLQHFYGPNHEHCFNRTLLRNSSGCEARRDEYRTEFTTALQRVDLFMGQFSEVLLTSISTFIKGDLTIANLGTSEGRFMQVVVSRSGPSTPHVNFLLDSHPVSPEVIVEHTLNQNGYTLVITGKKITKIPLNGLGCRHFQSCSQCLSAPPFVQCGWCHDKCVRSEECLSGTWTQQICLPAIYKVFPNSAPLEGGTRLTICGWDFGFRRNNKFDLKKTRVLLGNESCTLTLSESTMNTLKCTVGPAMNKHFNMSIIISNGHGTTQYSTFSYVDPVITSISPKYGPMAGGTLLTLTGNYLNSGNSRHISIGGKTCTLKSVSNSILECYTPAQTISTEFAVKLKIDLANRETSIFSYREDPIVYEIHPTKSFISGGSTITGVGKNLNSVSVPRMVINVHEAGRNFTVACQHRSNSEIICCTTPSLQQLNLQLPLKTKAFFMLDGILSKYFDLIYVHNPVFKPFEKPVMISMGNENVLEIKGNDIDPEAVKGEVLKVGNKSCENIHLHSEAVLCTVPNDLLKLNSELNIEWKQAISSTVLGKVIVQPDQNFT
Description: (§1) Binding of labeled c-MET to CAR-T cells expressing the affinity tuned c-MET scFvs was evaluated by transducing lentivirus anti-c-MET CAR particles into human T cells to form c-MET CAR-T cells incubated with AF647-labeled c-MET. […] Following a 48 hr. incubation at 37° C., the culture media was brought up to […] per well and incubated at 37° C. for 10 days.
(§2) Cells were stained on ice for 30 mins and then washed with PBS. After washing, residually bound protein on CAR T cells were measured on a flow cytometer (Beckman, CytoFLEX®). The resulting binding data was fit using a non-linear regression analysis on GraphPad Prism to calculate half effective dose concentration (EC₅₀) values. The results of this analysis are shown in FIGS. 2-5 and Tables 2-5 below.

[7] = target: T2, AF647 labeled c-met protein; assay: flow cytometry, AF647-labeled c-met protein titrated on CAR-T cells (Round 2)
Description: as §1, §2

T1 sequence (P08581 25-1390): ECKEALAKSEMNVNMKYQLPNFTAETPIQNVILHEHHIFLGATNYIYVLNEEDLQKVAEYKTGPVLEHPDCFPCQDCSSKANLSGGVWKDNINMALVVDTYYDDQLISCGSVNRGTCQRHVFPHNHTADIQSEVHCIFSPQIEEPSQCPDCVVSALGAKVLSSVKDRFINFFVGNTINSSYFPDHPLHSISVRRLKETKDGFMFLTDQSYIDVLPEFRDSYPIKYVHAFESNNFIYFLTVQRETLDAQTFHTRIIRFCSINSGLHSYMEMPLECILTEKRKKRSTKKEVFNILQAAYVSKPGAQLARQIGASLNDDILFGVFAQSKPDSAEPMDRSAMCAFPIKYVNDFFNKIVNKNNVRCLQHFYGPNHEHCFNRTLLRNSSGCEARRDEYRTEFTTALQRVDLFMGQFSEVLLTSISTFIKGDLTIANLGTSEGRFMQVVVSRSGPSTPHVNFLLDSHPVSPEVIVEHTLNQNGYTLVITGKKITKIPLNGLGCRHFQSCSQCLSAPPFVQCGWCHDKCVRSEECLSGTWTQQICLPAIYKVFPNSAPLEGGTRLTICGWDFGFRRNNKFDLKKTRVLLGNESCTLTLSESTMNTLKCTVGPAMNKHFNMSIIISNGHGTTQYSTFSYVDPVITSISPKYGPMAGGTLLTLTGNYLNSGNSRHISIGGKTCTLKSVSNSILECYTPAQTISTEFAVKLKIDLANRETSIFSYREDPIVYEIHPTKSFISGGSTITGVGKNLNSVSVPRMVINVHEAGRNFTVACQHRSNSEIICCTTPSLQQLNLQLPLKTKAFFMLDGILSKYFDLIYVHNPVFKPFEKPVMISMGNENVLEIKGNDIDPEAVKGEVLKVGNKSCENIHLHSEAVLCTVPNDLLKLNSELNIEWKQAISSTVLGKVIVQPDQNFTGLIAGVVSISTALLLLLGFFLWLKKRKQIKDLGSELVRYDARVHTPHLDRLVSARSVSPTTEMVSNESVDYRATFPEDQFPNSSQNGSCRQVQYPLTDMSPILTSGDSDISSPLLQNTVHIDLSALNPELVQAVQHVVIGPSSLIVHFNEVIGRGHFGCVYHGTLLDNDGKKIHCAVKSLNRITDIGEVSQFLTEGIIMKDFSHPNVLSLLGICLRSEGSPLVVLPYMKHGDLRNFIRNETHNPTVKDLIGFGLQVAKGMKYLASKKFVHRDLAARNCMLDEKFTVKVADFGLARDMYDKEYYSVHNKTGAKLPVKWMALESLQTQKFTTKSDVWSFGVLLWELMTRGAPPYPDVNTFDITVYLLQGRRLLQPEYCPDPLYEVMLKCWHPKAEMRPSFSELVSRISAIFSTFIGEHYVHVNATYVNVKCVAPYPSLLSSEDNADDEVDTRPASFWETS

B1: Affy6-I3F CAR (other)
chain: GSEQKLISEEDLGSQVQLVQSGAEVKKPGASVKVSCKASGYIFTAYTMHWVRQAPGQGLEWMGWIKPNNGLANYAQKFQGRVTMTRDTSISTAYMELSRLRSDDTAVYYCARSEFTTEFDYWGQGTLVTVSSGGGGSGGGGSGGGGSDIVLTQSPDSLAVSLGERATINCKSSESVDSYANSFMHWYQQKPGQPPKLLIYRASTRESGVPDRFSGSGSRTDFTLTISSLQAEDVAVYYCQQSKEDPLTFGGGTKVEIKASTTTPAPRPPTPAPTIASQPLSLRPEACRPAAGGAVHTRGLDFACDFWVLVVVGGVLACYSLLVTVAFIIFWVRSKRSRLLHSDYMNMTPRRPGPTRKHYQPYAPPRDFAAYRSLRVKFSRSADAPAYQQGQNQLYNELNLGRREEYDVLDKRRGRDPEMGGKPRRKNPQEGLYNELQKDKMAEAYSEIGMKGERRRGKGHDGLYQGLSTATKDTYDALHMQALPPR
notes: CAR on transduced human T cells; I to F in HC CDR3; P2A remnant not included; also called MycT-Affy6-I3F CAR-SSTR2
[1]
  percent cytotoxicity, H1993, 24 hrs: 64.7%
  percent cytotoxicity, H1993, 48 hrs: 91.3%
  percent cytotoxicity, H1993, 72 hrs: 97%
[2]
  cytotoxicity, Normal Human Lung Cells, 8 hrs: 17.1
  cytotoxicity, Normal Human Lung Cells, 16 hrs: 16.4
  cytotoxicity, Normal Human Lung Cells, 24 hrs: 19.1
  cytotoxicity, Normal Human Lung Cells, 32 hrs: 18
  cytotoxicity, Normal Human Lung Cells, 40 hrs: 29.4
  cytotoxicity, Normal Human Lung Cells, 48 hrs: 34.8
[3]
  cytotoxicity, Normal Human Liver Cells, 8 hrs: 15.3
  cytotoxicity, Normal Human Liver Cells, 16 hrs: 24.7
  cytotoxicity, Normal Human Liver Cells, 24 hrs: 31.8
  cytotoxicity, Normal Human Liver Cells, 32 hrs: 34.8
  cytotoxicity, Normal Human Liver Cells, 40 hrs: 34.8
  cytotoxicity, Normal Human Liver Cells, 48 hrs: 31.8
[4]
  cytotoxicity, Normal Human Kidney Cells, 8 hrs: 19.2
  cytotoxicity, Normal Human Kidney Cells, 16 hrs: 28
  cytotoxicity, Normal Human Kidney Cells, 24 hrs: 30.4
  cytotoxicity, Normal Human Kidney Cells, 32 hrs: 27.8
  cytotoxicity, Normal Human Kidney Cells, 40 hrs: 18.8
  cytotoxicity, Normal Human Kidney Cells, 48 hrs: 16.5
[5]
  cytotoxicity, Normal Human Colon Cells, 8 hrs: 13.2
  cytotoxicity, Normal Human Colon Cells, 16 hrs: 19.2
  cytotoxicity, Normal Human Colon Cells, 24 hrs: 22.4
  cytotoxicity, Normal Human Colon Cells, 32 hrs: 13.3
  cytotoxicity, Normal Human Colon Cells, 40 hrs: 1.6
  cytotoxicity, Normal Human Colon Cells, 48 hrs: 8.3
[6]
  Fold Change: 937 fold
[7]
  EC50: 20.5 µM

B2: Affy6-I3W CAR (other)
chain: GSEQKLISEEDLGSQVQLVQSGAEVKKPGASVKVSCKASGYIFTAYTMHWVRQAPGQGLEWMGWIKPNNGLANYAQKFQGRVTMTRDTSISTAYMELSRLRSDDTAVYYCARSEWTTEFDYWGQGTLVTVSSGGGGSGGGGSGGGGSDIVLTQSPDSLAVSLGERATINCKSSESVDSYANSFMHWYQQKPGQPPKLLIYRASTRESGVPDRFSGSGSRTDFTLTISSLQAEDVAVYYCQQSKEDPLTFGGGTKVEIKASTTTPAPRPPTPAPTIASQPLSLRPEACRPAAGGAVHTRGLDFACDFWVLVVVGGVLACYSLLVTVAFIIFWVRSKRSRLLHSDYMNMTPRRPGPTRKHYQPYAPPRDFAAYRSLRVKFSRSADAPAYQQGQNQLYNELNLGRREEYDVLDKRRGRDPEMGGKPRRKNPQEGLYNELQKDKMAEAYSEIGMKGERRRGKGHDGLYQGLSTATKDTYDALHMQALPPR
notes: CAR on transduced human T cells; I to W in HC CDR3; P2A remnant not included; also called MycT-Affy6-I3W CAR-SSTR2
[1]
  percent cytotoxicity, H1993, 24 hrs: 74.9%
  percent cytotoxicity, H1993, 48 hrs: 93.5%
  percent cytotoxicity, H1993, 72 hrs: 98.2%
[2]
  cytotoxicity, Normal Human Lung Cells, 8 hrs: 14.3
  cytotoxicity, Normal Human Lung Cells, 16 hrs: 20.9
  cytotoxicity, Normal Human Lung Cells, 24 hrs: 30.6
  cytotoxicity, Normal Human Lung Cells, 32 hrs: 34
  cytotoxicity, Normal Human Lung Cells, 40 hrs: 41.2
  cytotoxicity, Normal Human Lung Cells, 48 hrs: 42.7
[3]
  cytotoxicity, Normal Human Liver Cells, 8 hrs: 15.1
  cytotoxicity, Normal Human Liver Cells, 16 hrs: 32.4
  cytotoxicity, Normal Human Liver Cells, 24 hrs: 44
  cytotoxicity, Normal Human Liver Cells, 32 hrs: 52.5
  cytotoxicity, Normal Human Liver Cells, 40 hrs: 52.4
  cytotoxicity, Normal Human Liver Cells, 48 hrs: 53.6
[4]
  cytotoxicity, Normal Human Kidney Cells, 8 hrs: 23.6
  cytotoxicity, Normal Human Kidney Cells, 16 hrs: 39.4
  cytotoxicity, Normal Human Kidney Cells, 24 hrs: 46
  cytotoxicity, Normal Human Kidney Cells, 32 hrs: 48.6
  cytotoxicity, Normal Human Kidney Cells, 40 hrs: 43.6
  cytotoxicity, Normal Human Kidney Cells, 48 hrs: 39.5
[5]
  cytotoxicity, Normal Human Colon Cells, 8 hrs: 18.8
  cytotoxicity, Normal Human Colon Cells, 16 hrs: 22.7
  cytotoxicity, Normal Human Colon Cells, 24 hrs: 27
  cytotoxicity, Normal Human Colon Cells, 32 hrs: 29.9
  cytotoxicity, Normal Human Colon Cells, 40 hrs: 30.9
  cytotoxicity, Normal Human Colon Cells, 48 hrs: 38.6
[6]
  Fold Change: 167 fold
[7]
  EC50: 3.6 µM

B3: Affy6-I3G CAR (other)
chain: GSEQKLISEEDLGSQVQLVQSGAEVKKPGASVKVSCKASGYIFTAYTMHWVRQAPGQGLEWMGWIKPNNGLANYAQKFQGRVTMTRDTSISTAYMELSRLRSDDTAVYYCARSEGTTEFDYWGQGTLVTVSSGGGGSGGGGSGGGGSDIVLTQSPDSLAVSLGERATINCKSSESVDSYANSFMHWYQQKPGQPPKLLIYRASTRESGVPDRFSGSGSRTDFTLTISSLQAEDVAVYYCQQSKEDPLTFGGGTKVEIKASTTTPAPRPPTPAPTIASQPLSLRPEACRPAAGGAVHTRGLDFACDFWVLVVVGGVLACYSLLVTVAFIIFWVRSKRSRLLHSDYMNMTPRRPGPTRKHYQPYAPPRDFAAYRSLRVKFSRSADAPAYQQGQNQLYNELNLGRREEYDVLDKRRGRDPEMGGKPRRKNPQEGLYNELQKDKMAEAYSEIGMKGERRRGKGHDGLYQGLSTATKDTYDALHMQALPPR
notes: CAR on transduced human T cells; I to G in HC CDR3; P2A remnant not included; also called MycT-Affy6-I3G CAR-SSTR2
[1]
  percent cytotoxicity, H1993, 24 hrs: 32.5%
  percent cytotoxicity, H1993, 48 hrs: 68.1%
  percent cytotoxicity, H1993, 72 hrs: 81.6%
[2]
  cytotoxicity, Normal Human Lung Cells, 8 hrs: 14.8
  cytotoxicity, Normal Human Lung Cells, 16 hrs: 17.3
  cytotoxicity, Normal Human Lung Cells, 24 hrs: 19.5
  cytotoxicity, Normal Human Lung Cells, 32 hrs: 18.4
  cytotoxicity, Normal Human Lung Cells, 40 hrs: 28
  cytotoxicity, Normal Human Lung Cells, 48 hrs: 33.1
[3]
  cytotoxicity, Normal Human Liver Cells, 8 hrs: 9.6
  cytotoxicity, Normal Human Liver Cells, 16 hrs: 13.7
  cytotoxicity, Normal Human Liver Cells, 24 hrs: 18.1
  cytotoxicity, Normal Human Liver Cells, 32 hrs: 22.3
  cytotoxicity, Normal Human Liver Cells, 40 hrs: 22.5
  cytotoxicity, Normal Human Liver Cells, 48 hrs: 20.5
[4]
  cytotoxicity, Normal Human Kidney Cells, 8 hrs: 10.1
  cytotoxicity, Normal Human Kidney Cells, 16 hrs: 17.9
  cytotoxicity, Normal Human Kidney Cells, 24 hrs: 17.2
  cytotoxicity, Normal Human Kidney Cells, 32 hrs: 15.8
  cytotoxicity, Normal Human Kidney Cells, 40 hrs: 10.2
  cytotoxicity, Normal Human Kidney Cells, 48 hrs: 14
[5]
  cytotoxicity, Normal Human Colon Cells, 8 hrs: 8.2
  cytotoxicity, Normal Human Colon Cells, 16 hrs: 14.4
  cytotoxicity, Normal Human Colon Cells, 24 hrs: 16.4
  cytotoxicity, Normal Human Colon Cells, 32 hrs: 11.4
  cytotoxicity, Normal Human Colon Cells, 40 hrs: 2
  cytotoxicity, Normal Human Colon Cells, 48 hrs: 10.7
[6]
  Fold Change: 6900 fold
[7]
  EC50: 151 µM
